Source: patent CN116535503A

Key:
[1] = molecular target: GDF15-HIS(百普赛斯，CAT#:GD5-H5149) (human) (UniProt Q99988); assay: cell-based or functional assay
[2] = molecular target: GDF15-HIS(百普赛斯，CAT#:GD5-H5149) (human) (UniProt Q99988); assay: ELISA, GDF15-HIS coated
[3] = molecular target: GDF15-mFC蛋白(GDF15:Genbank登记号NM_004864.3;mFC:Genbank登记号AAH31470.1) (human; mouse) (UniProt Q99988); assay: competition ELISA: blocks GDF15-mFC binding to coated GFRAL-hFc
[4] = molecular target: GDF15-HIS(百普赛斯，CAT#:GD5-H5149) (human) (UniProt Q99988); assay: BLI (ForteBio Octet), antibody captured at 10 μg/ml, GDF15 6.25-200 nM

Chain of GDF15-HIS(百普赛斯，CAT#:GD5-H5149) (human) (Q99988 197-308 limits assumed): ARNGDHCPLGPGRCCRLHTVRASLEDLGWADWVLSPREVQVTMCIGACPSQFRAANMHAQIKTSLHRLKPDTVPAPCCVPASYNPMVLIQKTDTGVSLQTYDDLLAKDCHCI

Bottom (fold luciferase activity), HEK293 SRE-LUC2-cRET-GFRAL reporter cells [1]: 1.07 | IC50(μg/ml), luciferase in HEK293 SRE-LUC2-cRET-GFRAL reporter cells stimulated with 5 ng/ml GDF15-His [1]: 0.0321 µg/mL | EC50 [2]: 0.096 µg/mL | OD450.Max [2]: 1.1 OD450 | IC50 [3]: 0.504 µg/mL | OD450.Max [3]: 1.02 OD450 | Kd [4]: < 1 pM | koff [4]: < 1e-07 s⁻¹ | kon [4]: 711000 M⁻¹ s⁻¹
Substance: Ponsegromab(Pfizer;Drug Bank:D11909) (antibody)
